Measured values taken from patent publication US20210009686A1.

Key:
[1] = target: claudin 18.1 (CLDN18.1) (human) (UniProt P56856); test: FACS, hybridoma supernatant on HEK293-CLDN18.1
[2] = target: claudin 18.1 (CLDN18.1) (human) (UniProt P56856); test: in-cell ELISA, hybridoma supernatant on HEK293-CLDN18.1 cells

Chain of claudin 18.1 (CLDN18.1) (human) (P56856 whole entry): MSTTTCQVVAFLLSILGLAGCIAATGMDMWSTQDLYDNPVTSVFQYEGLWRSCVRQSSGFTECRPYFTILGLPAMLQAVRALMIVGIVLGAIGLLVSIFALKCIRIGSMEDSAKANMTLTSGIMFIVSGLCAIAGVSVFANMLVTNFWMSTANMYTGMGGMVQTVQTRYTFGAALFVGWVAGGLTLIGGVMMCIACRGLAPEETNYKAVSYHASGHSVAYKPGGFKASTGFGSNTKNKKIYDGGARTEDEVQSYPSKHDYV

MFI [1]: 14300
OD450/µg IgG [2]: 0.62 OD450/µg IgG
B1: hybridoma clone 10-L9-A (antibody, V domains shown)
VH: EVQLVESGGGLVKPGGSRKLSCAASGFTFSDYGMHWVRQAPEKGLEWIAYINSGSSTIYYADTVKGRFTISRDNAKNTLFLQMTSLRSEDTAMFYCARFARGNVLDYWGQGTSVTVSS
VL: DIVMTQSPSSLTVTAGEKVTMSCRSSQSLLNSGNQRNYLTWYQQKPGHPPKLLIYWASTRESGVPDRFTGSGSGTDFTLTISGVQAEDLAVYYCQNGYSYPLTFGAGTKLEVK
